1 molecule from patent publication US20180037663A1 (OHIO STATE INNOVATION FOUNDATION, published 2018) can be followed below.

The target in the assay is T1, bovine submaxillary mucin (bovine).
T1 construct: Used as surrogate antigen for TAG-72; also called BSM
Briefly: binding study of FIG. 14 (inhibition dot blot), compared with 3E8.IgG.

B1: 3E8.scFv (scFv)
scFv: GSSGDIVMTQSPDSLAVSLGERATINCKSSQSVLYSSNNKNYLAWYQQKPGQPPKLLIYWASTRESGVPDRFSGSGSGTDFTLTISSLQAEDVAVYYCQQYYSYPLTFGGGTKVEIKLSADDAKKDAAKKDDAKKDDAKKDLQVQLVQSGAEVKKPGASVKVSCKASGYTFTDHAIHWVRQAPGQRLEWMGYFSPGNDDFKYSQKFQGRVTITADKSASTAYMELSSLRSEDTAVYYCARSWIMQYWGQGTLVTVSS
notes: Monomeric scFv purified from the E. coli periplasm; Labelled at lysines with fluorescein (dot blots) or biotin (HRP dot blot, IHC); also called scFv of 3E8; single chain variable fragment of 3E8
As to B1, the “fold worse binder than 3E8.IgG” value is ~16 fold.
